Assay results as given in paper PMC11317129, “Bacterial histone HBb from Bdellovibrio bacteriovorus compacts DNA by bending” (Nucleic Acids Research, 2023).

B1: 80 bp-GC50 [Cy5] (dsDNA)
DNA 1: TTAAAGCCCGTTAAAGCCCGTTAAAGCCCGTTAAAGCCCGTTAAAGCCCGTTAAAGCCCGTTAAAGCCCGTTAAAGCCCG
DNA 2: CGGGCTTTAACGGGCTTTAACGGGCTTTAACGGGCTTTAACGGGCTTTAACGGGCTTTAACGGGCTTTAACGGGCTTTAA
B2: bacterial histone HBb (Histone of B. bacteriovorus) (natural protein, Bdellovibrio bacteriovorus)
chain: MAEVLVVTSKVKKLIKEKGQMNTSAETIDVLSKAIEQLCLKGVESAKADGRKTVMARDIVIDHL
notes: theoretical molecular weight 7 kDa; Homodimer by SEC-MALS and in the crystals; also called Bd0055
B3: 80 bp DNA [Cy5] (dsDNA)
DNA 1: CCGTACTGTCGTCTGCGGCCTTTGATTATCAATTAAAGCGTTCTACGGCGTTTTTGATCGCTCAACGTGCGGAGCTAGAT
DNA 2: ATCTAGCTCCGCACGTTGAGCGATCAAAAACGCCGTAGAACGCTTTAATTGATAATCAAAGGCCGCAGACGACAGTACGG

Key:
HBb (Bd0055) [1] = molecular target: T1, HBb (Bd0055) (Bdellovibrio bacteriovorus HD100, UniProt Q6MRM1 1-64); assay: MST; unit printed as M (symbol lost); 10 nM DNA; MST: 20 mM Tris pH 8.0, 150 mM NaCl, 2.5 mM 2-mercaptoethanol, 37 C 10 min (HMfB RT 5 min); EMSA 80 bp: 25 mM Tris pH 8.0, 50 mM NaCl, 50 mM KCl, 37 C; ladder EMSA/MNase/circularization: 50 mM Tris pH 7.0, 75 mM KCl, RT; conditions: protein: recombinant; tags: N-terminal His6 (vector pETHis1a); chain copies: 2; label: 5' Cy5 on strand 1; blunt
T1 sequence: B2 chain

HMfB = HMfB (Methanothermus fervidus, UniProt P19267 1-69); assay: MST; unit printed as M (symbol lost); 20 nM in HMfB titration; MST: 20 mM Tris pH 8.0, 150 mM NaCl, 2.5 mM 2-mercaptoethanol, 37 C 10 min (HMfB RT 5 min); EMSA 80 bp: 25 mM Tris pH 8.0, 50 mM NaCl, 50 mM KCl, 37 C; ladder EMSA/MNase/circularization: 50 mM Tris pH 7.0, 75 mM KCl, RT; conditions: protein: recombinant; tags: N-terminal His6 (vector pET28a); chain copies: 4; label: 5' Cy5 on strand 1; blunt
[2] = molecular target: the molecule itself; assay: SEC-MALS; purified HBb in solution; 1260 Infinity II HPLC with miniDAWN TREOS and Optilab T-rEX detectors
HBb (Bd0055) [3] = molecular target: T1, HBb (Bd0055); assay: MST; unit printed as M (symbol lost); text says lower micromolar; 10 nM DNA; MST: 20 mM Tris pH 8.0, 150 mM NaCl, 2.5 mM 2-mercaptoethanol, 37 C 10 min (HMfB RT 5 min); EMSA 80 bp: 25 mM Tris pH 8.0, 50 mM NaCl, 50 mM KCl, 37 C; ladder EMSA/MNase/circularization: 50 mM Tris pH 7.0, 75 mM KCl, RT; conditions: protein: recombinant; tags: N-terminal His6 (vector pETHis1a); chain copies: 2; label: 5' Cy5 on strand 1; blunt

Chain of HMfB (P19267 whole entry): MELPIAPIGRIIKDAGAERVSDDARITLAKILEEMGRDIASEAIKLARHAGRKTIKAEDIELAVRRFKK

| Binder | Kd (HBb (Bd0055) [1]) [µM] | Kd (HMfB) [µM] | stoichiometry N [2] | Kd (HBb (Bd0055) [3]) [µM] |
| --- | --- | --- | --- | --- |
| B1 | 11.1 ± 1.07 | 3.92 ± 1.16 |  |  |
| B2 |  |  | 2 |  |
| B3 |  | 0.83 ± 0.27 |  | 4.84 ± 0.97 |
